Assay results reported in patent US20210275641A1 (SYNTHEKINE, published 2021).

Molecular target: T1, human high affinity trimeric IL-2 receptor (CD25/CD122/CD132) (human, UniProt P01589 22-272; P14784 27-551; P31785 23-369)
T1 sequence 1: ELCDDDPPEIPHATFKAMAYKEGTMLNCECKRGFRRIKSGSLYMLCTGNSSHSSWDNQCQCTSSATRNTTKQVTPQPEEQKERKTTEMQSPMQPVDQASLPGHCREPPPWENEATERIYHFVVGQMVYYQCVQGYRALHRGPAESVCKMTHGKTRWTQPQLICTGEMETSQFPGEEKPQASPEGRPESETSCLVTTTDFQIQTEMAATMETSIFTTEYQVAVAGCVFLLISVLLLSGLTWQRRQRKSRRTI
T1 sequence 2: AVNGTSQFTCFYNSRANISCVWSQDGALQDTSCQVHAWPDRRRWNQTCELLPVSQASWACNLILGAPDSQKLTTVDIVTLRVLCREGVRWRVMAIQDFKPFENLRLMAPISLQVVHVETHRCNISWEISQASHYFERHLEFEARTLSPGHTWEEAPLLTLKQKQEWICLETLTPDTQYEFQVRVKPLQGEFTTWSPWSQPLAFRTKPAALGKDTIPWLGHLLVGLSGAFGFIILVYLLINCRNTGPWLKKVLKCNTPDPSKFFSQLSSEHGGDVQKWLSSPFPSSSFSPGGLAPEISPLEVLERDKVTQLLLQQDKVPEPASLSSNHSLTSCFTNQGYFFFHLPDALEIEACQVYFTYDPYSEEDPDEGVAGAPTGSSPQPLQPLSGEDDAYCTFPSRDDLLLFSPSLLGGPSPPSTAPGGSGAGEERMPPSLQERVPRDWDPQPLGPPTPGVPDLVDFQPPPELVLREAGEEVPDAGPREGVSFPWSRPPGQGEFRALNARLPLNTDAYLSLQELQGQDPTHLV
T1 sequence 3: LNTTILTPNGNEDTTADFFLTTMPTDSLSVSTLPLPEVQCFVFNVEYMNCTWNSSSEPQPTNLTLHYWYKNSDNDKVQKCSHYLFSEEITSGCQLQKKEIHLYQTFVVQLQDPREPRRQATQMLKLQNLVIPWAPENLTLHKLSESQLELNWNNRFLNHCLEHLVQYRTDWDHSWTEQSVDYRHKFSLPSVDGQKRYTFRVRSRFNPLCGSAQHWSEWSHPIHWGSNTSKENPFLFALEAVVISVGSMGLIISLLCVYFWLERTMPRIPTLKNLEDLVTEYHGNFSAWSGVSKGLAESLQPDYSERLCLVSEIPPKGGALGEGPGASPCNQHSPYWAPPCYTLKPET
Test: cell-based or functional assay

B1: STK-012 (N-terminally 40 kD PEGylated des-Ala1 REK hIL2 mutein, STK-011) (ligand)
chain: PTSSSTKKTQLQLEHLRLDLEMILNGINNYKNPKLTRMLTFKFYMPKKATELKHLQCLEEELKPLEEVLNLAQSKNFHLRPRDLISNINVIVLELKGSETTFMCEYADETATIVEFLNRWITFCKSIISTLT
modifications: N-terminal proline conjugated to a 40 kd (20 kD x 2 arm) branched PEG moiety via a linker
EC50 (read off the curve): ~8 pM
